Key:
[1] = target: T1, Mus musculus Mfsd2a with a single point mutation (Q67H), purified in LMNG/CHS/GDN detergent (Mus musculus, UniProt Q9DA75 1-534, limits assumed); assay: cryo-EM of the complex, scFv as fiducial mark
T1 construct: Membrane transporter expressed in HEK293S cells and purified in detergent; also called mouse Mfsd2a Q67H
T1 sequence (looked up): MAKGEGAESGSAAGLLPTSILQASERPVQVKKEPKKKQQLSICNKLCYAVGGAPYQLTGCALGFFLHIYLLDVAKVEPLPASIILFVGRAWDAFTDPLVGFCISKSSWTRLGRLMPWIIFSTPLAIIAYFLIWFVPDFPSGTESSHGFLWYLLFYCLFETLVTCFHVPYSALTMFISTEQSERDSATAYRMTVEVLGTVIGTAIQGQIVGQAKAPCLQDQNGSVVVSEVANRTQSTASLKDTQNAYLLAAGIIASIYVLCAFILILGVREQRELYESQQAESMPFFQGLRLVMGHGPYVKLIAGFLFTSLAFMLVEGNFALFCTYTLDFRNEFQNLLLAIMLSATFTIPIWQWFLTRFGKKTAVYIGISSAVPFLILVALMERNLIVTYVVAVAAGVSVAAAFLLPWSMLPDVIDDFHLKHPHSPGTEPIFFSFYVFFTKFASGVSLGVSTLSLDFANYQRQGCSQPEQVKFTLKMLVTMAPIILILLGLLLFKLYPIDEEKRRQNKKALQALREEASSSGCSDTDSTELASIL
Source text: Mouse Mfsd2a was over-expressed in HEK293 cells and purified for structural studies. A fortuitous loss-of-function single point mutation Q67H (FIG. 6D) was identified that presumably arrests the transporter in an outward-facing conformation based on its location near the typical extracellular gate area in MFS transporters. It was theorized that this might reduce conformational heterogeneity and selected this variant for structural studies. The purified protein was biochemically stable and appeared monodisperse on size exclusion chromatography (FIG. 6A). To obtain the most homogenous samples for cryo-EM studies, the proteins were screened after being purified under various conditions. Mfsd2a purified in lauryl maltose neopentyl glycol/cholesteryl hemisuccinate/glycol-diosgenin (LMNG/CHS/GDN) detergent mixture was selected for further structural studies as particles appeared to be homogeneous in size and shape. Since Mfsd2a is small in size (59 kDa) with few features outside the micelle, it presents challenges for cryo-EM studies. To aid the particle alignment, we used a single-chain variable fragment (scFv) of antibody that binds to the extracellular side of Mfsd2a as a fiducial mark. This strategy permitted determination of the cryo-EM structure of Mfsd2a at 3.5 Å resolution (FIG. 1B; FIGS. 7A-7F).

[2] = target: T2, Mouse Mfsd2a, wild type (endogenous on brain endothelial cells of wildtype mice); stably expressed in HEK293 … (mouse, UniProt Q9DA75 1-534); assay: IV injection into adult mice (10 ug/ml), brain sections stained with fluorescent secondary antibody
T2 construct: whole, on cells; also called endogenous Mfsd2a
T2 sequence (looked up): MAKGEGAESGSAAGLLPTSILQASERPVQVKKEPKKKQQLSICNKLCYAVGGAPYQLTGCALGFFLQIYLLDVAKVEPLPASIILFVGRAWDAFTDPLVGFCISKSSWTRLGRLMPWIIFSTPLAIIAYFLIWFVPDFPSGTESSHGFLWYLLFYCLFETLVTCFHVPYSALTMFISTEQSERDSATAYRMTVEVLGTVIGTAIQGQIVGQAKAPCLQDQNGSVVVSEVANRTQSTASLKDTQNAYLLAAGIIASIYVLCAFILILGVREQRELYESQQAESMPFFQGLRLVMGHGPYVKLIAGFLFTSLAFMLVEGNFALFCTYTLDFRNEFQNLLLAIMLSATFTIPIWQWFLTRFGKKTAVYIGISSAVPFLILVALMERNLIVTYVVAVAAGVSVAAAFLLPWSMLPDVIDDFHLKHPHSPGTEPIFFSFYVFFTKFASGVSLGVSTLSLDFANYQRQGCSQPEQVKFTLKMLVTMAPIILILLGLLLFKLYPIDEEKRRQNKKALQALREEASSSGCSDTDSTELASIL
Experimental: The specificity of the antibody described herein (D1, with CDRs of SEQ ID NOs: 1-6) was tested. IV-injection of D1 antibody or control antibody was IV injected at 10 ug/ml to adult mice. The antibodies were permitted to circulate for 15 minutes, followed by 10 ml PBS perfusion and fixation. Brains were sectioned and stained with fluorescent labeled secondary antibody. […] It specifically binds to the endogenous Mfsd2a that is expressed on the luminal side of the brain endothelial cell plasma membrane in the wildtype mice, absence in the Mfsd2a knockout mice. Control antibody injected animals show no staining.

B1: Anti-Mfsd2a scFv (ScFv of SEQ ID NO: 7) (scFv)
scFv: QPSSVSANPGETVKITCSGARYGYGWYQQKSPGSALVTLIYANNIRPSAIPSRFSGSKSGSTATLTITGVRAEDEAVYYCGNEDSITYAAFGAGTTLTVLGGSSRSSGGGGSSGGGGSAVTLDESGGGLQTPKGGLSLVCKASGFTFSSYDMAWVRQAPGKGLEWVAGITSTGSYTNYGAAVKGRATISRDNGQSTVRLQLNSLRAEDTATYFCAKSSFGCPYSCWYDIAGSIDAWGHGTEVIVS
notes: Isolated by phage display from chickens immunized with lipoparticles containing mouse Mfsd2a; Expressed as an scFv-Fc fusion with a human Fc; the scFv fragment was released by papain cleavage and purified by ion exchange; also called single-chain variable fragment
binding result [1]: binds

B2: D1 antibody (with CDRs of SEQ ID NOs: 1-6) (antibody, V domains shown)
VH: AVTLDESGGGLQTPKGGLSLVCKASGFTFSSYDMAWVRQAPGKGLEWVAGITSTGSYTNYGAAVKGRATISRDNGQSTVRLQLNSLRAEDTATYFCAKSSFGCPYSCWYDIAGSIDAWGHGTEVIVSS
VL: ALTQPSSVSANPGETVKITCSGARYGYGWYQQKSPGSALVTLIYANNIRPSAIPSRFSGSKSGSTATLTITGVRAEDEAVYYCGNEDSITYAAFGAGTTLTVL
binding result [2]: binds

From patent US20240117033A1 (Harvard, published 2024)
